Where two headings read alike, the source gives them in different places. Blank lines part the entries; values can stand above or below the binder they belong to. Square brackets hold non-standard residues; d marks the D form. Ends that are not written are not given here. Phe(4-NO2) = N[C@@H](Cc1ccc([N+](=O)[O-])cc1)C(=O)O; Phe(4-F) = N[C@@H](Cc1ccc(F)cc1)C(=O)O; Phg = N[C@H](C(=O)O)c1ccccc1; Nle = CCCC[C@H](N)C(=O)O; Nva = CCC[C@H](N)C(=O)O; Abu = CC[C@H](N)C(=O)O
How the values were obtained:
[1] = biological target: T1, HLA-A*0201 class I monomer on avidin-coated plates (iTopia Epitope Discovery System) (human); test: iTopia off-rate assay (FIG. 21)
T1 construct: Bought kit (Beckman Coulter); also called A0201 restricted MHC Class 1 molecules; MHC monomer
Protocol: (§1) Avidin-coated microtiter plates containing class I monomer loaded with a so-called placeholder peptide were used to evaluate peptide binding, affinity and off-rate. […] Assay buffers, anti-MHC-FITC mAb and beta2-microglobulin and control peptides were also supplied with the kits. Binding Assay:
(§2) The plates were then incubated on the allele-specific monomer plates at 37° C. The plates were measured at multiple time points (0, 0.5, 1, 1.5, 2, 4, 6 and 8 hrs) for relative fluorescence intensity. The time required for 50% of the peptide to dissociate from the MHC monomer is defined as the T1/2 value (hrs).

[2] = biological target: T1, HLA-A*0201 class I monomer on …; test: iTopia affinity assay (FIG. 19)
Description: as §1

[3] = biological target: T2, HLA-A*0201 on T2 cells (human); test: T2 cell stability assay, flow cytometry
T2 construct: whole, on cells; also called HLA-A2

[4] = biological target: T2, HLA-A*0201 on T2 cells; test: T2 cell binding assay, flow cytometry
[5] = biological target: T1, HLA-A*0201 class I monomer on …; test: iTopia off-rate assay (FIG. 20)
Protocol: as §1, §2

[6] = biological target: T1, HLA-A*0201 class I monomer on …; test: iTopia assays (FIG. 19)
Description: as §1
This assay measures the ability of individual peptides to bind HLA molecules under standardized optimal binding conditions. Monomer-coated plates were first stripped, releasing the placeholder peptide and leaving only the MHC heavy chain bound to the plate. Test peptides were then introduced under optimal folding conditions, along with the anti-MHC-FITC mAb. […] The anti-MHC-FITC mAb binds preferentially to a refolded MHC complex. Therefore, the fluorescence intensity resulting from each peptide was related to the peptide's ability to form complex with MHC molecule. Each peptide's binding was evaluated relative to the positive control peptide provided in the kit, and the results were expressed “% binding”.

[7] = biological target: T2, HLA-A*0201 on T2 cells; test: T2 cell stability assay, flow cytometry; remark: listed apart in the source
[8] = biological target: T2, HLA-A*0201 on T2 cells; test: T2 cell binding assay, flow cytometry; remark: listed apart in the source
[9] = biological target: T2, HLA-A*0201 on T2 cells; test: T2 cell binding assay, flow cytometry; remark: listed apart in the source
[10] = biological target: T2, HLA-A*0201 on T2 cells; test: T2 cell stability assay, flow cytometry; remark: listed apart in the source

B3: SSX2 41-49 (K41F, A42V, I46Nva) (peptide)
peptide: FVSEK[Nva]FYV
notes: also called FVSEK(Nva)FYV
- Stability (T1/2) [3]: > 24 h
- EC50 [4]: 6.21 µM
- Relative affinity (1/RA) [4]: 2.4

B5: SSX2 41-49 (K41F, A42V, E44Nva) (peptide)
peptide: FVS[Nva]KIFYV
notes: also called FVS(Nva)KIFYV
- Stability (T1/2) [3]: > 24 h
- EC50 [4]: 3.8 µM
- Relative affinity (1/RA) [4]: 3.9

B6: SSX2 41-49 (K41F, A42V, I46Nle) (peptide)
peptide: FVSEK[Nle]FYV
notes: also called FVSEK(Nle)FYV
- EC50 [4]: 12.8 µM

B9: SSX2 41-49 (K41(Phe-4F)) (peptide)
peptide: [Phe(4-F)]ASEKIFYV
- Stability (T1/2) [7]: > 24 h

B23: SSX2 41-49 (K41(Phe-4N02)) (peptide)
peptide: [Phe(4-NO2)]ASEKIFYV
notes: also called para-nitrophenylalanine analog
- EC50 [8]: 12.8 µM
- Relative affinity (1/RA) [8]: 1.1

B24: SSX2 41-49 (K41F, A42V) (peptide)
peptide: FVSEKIFYV
- EC50 [9]: 4.67 µM
- Relative affinity (1/RA) [9]: 3.1
- Stability (T1/2) [10]: 24 h

B25: SSX2 41-49 (K41F, A42V, Y48T) (peptide)
peptide: FVSEKIFTV
- Stability (T1/2) [3]: 24 h
- EC50 [4]: 3.9 µM
- Relative affinity (1/RA) [4]: 3.8

B26: SSX2 41-49 (K41W, A42M) (peptide)
peptide: WMSEKIFYV
- EC50 [9]: 5.13 µM
- Relative affinity (1/RA) [9]: 2.9
- Stability (T1/2) [10]: > 24 h

B28: SSX2 41-49 (K41F, A42V, E44Q) (peptide)
peptide: FVSQKIFYV
- EC50 [4]: 40.8 µM
- Relative affinity (1/RA) [4]: 0.4

B29: SSX2 41-49 (K41F, A42V, Y48S) (peptide)
peptide: FVSEKIFSV
- Stability (T1/2) [3]: 20 h
- EC50 [4]: 3.8 µM
- Relative affinity (1/RA) [4]: 3.9

B30: SSX2 41-49 (K41Y) (peptide)
peptide: YASEKIFYV
- EC50 [8]: 8.74 µM
- Relative affinity (1/RA) [8]: 1.7
- Stability (T1/2) [7]: > 24 h

B31: SSX2 41-49 (K41F) (peptide)
peptide: FASEKIFYV
- EC50 [8]: 9.55 µM
- Relative affinity (1/RA) [8]: 1.5
- Stability (T1/2) [7]: > 24 h

B32: SSX2 41-49 (K41W, A42V) (peptide)
peptide: WVSEKIFYV
- EC50 [9]: 4.82 µM
- Relative affinity (1/RA) [9]: 3
- Stability (T1/2) [10]: > 24 h

B33: SSX2 41-49 (K41F, A42V, Y48F) (peptide)
peptide: FVSEKIFFV
- Stability (T1/2) [3]: 20 h
- EC50 [4]: 8.8 µM
- Relative affinity (1/RA) [4]: 1.7

B34: SSX2 41-49 (K41F, A42V, I46L, Y48T, V49A) (peptide)
peptide: FVSEKLFTA
- Stability (T1/2) [3]: 12 h

B35: SSX2 41-49 (K41F, A42V, I46L) (peptide)
peptide: FVSEKLFYV
- Stability (T1/2) [3]: 24 h
- EC50 [4]: 7.8 µM
- Relative affinity (1/RA) [4]: 1.9

B36: SSX2 41-49 (K41F, A42V, I46L, Y48S, V49A) (peptide)
peptide: FVSEKLFSA
- EC50 [4]: 6.2 µM
- Relative affinity (1/RA) [4]: 2.4

B37: SSX2 41-49 (K41W, A42L) (peptide)
peptide: WLSEKIFYV
- EC50 [9]: 4.47 µM
- Relative affinity (1/RA) [9]: 3.3
- Stability (T1/2) [10]: > 24 h

B39: SSX2 41-49 (K41F, A42V, I46V) (peptide)
peptide: FVSEKVFYV
- Stability (T1/2) [3]: 24 h

B41: SSX2 41-49 (K41F, A42V, E44D) (peptide)
peptide: FVSDKIFYV
- EC50 [4]: 13.2 µM
- Relative affinity (1/RA) [4]: 1.1

B42: SSX2 41-49 (K41F, A42I) (peptide)
peptide: FISEKIFYV
- EC50 [9]: 5.37 µM
- Relative affinity (1/RA) [9]: 2.7
- Stability (T1/2) [10]: > 24 h

B43: SSX2 41-49 (K41F, A42V, I46L, Y48T) (peptide)
peptide: FVSEKLFTV
- Stability (T1/2) [3]: 24 h
- EC50 [4]: 5.67 µM
- Relative affinity (1/RA) [4]: 2.6

B45: SSX2 41-49 (K41F, A42V, E44Nle) (peptide)
peptide: FVS[Nle]KIFYV
notes: also called FVS(Nle)KIFYV
- EC50 [4]: 13 µM
- Relative affinity (1/RA) [4]: 1.1

B46: SSX2 41-49 (K41F, A42V, Y48Phg) (peptide)
peptide: FVSEKIF[Phg]V
notes: also called FVSEKIF(Phg)V
- Stability (T1/2) [3]: > 24 h
- EC50 [4]: 5.85 µM
- Relative affinity (1/RA) [4]: 2.5

B47: SSX2 41-49 (K41F, A42V, Y48(Phe-4F)) (peptide)
peptide: FVSEKIFXV
modifications: 4-fluorophenylalanine (Phe(4-F)) at position 48 (P8)
notes: also called FVSEKIF(Phe-4F)V
- Stability (T1/2) [3]: 24 h
- EC50 [4]: 10.6 µM
- Relative affinity (1/RA) [4]: 1.4

B52: PSMA288-297 analog with Sar at P1 (peptide)
peptide: XLPSIPVHPI
modifications: sarkosine (Sar, N-methylglycine) at P1
- binding result [6]: binds

B54: SSX2 41-49 (K41(b-(3-benzothienyl)Ala)) (peptide)
peptide: XASEKIFYV
modifications: β-(3-benzothienyl)-alanine at position 41 (P1)
- EC50 [8]: 24.1 µM
- Relative affinity (1/RA) [8]: 0.6

B55: PSMA288-297 analog with Nva at P2 and Val at PΩ (peptide)
peptide: G[Nva]PSIPVHPV
- binding result [5]: binds

The next lines start with the values.

- binding result [1]: binds
B1: PSMA288-297 analog with Ala at P1, Nva at P2 and Trp at P3 (peptide)
peptide: A[Nva]WSIPVHPI

- binding result [2]: binds
B2: PSMA288-297 analog with Nle at PΩ (peptide)
peptide: GLPSIPVHP[Nle]

- binding result [5]: binds
B4: PSMA288-297 analog with Nle at P2 and Val at PΩ (peptide)
peptide: GXPSIPVHPV
modifications: norleucine (Nle) at P2

- binding result [5]: binds
B7: PSMA288-297 analog with Abu at P1 and Nva at PΩ (peptide)
peptide: XLPSIPVHPX
modifications: aminobutyric acid (Abu) at P1; norvaline (Nva) at PΩ (P10)

- binding result [6]: binds
B8: PSMA288-297 analog with Abu at P1 (peptide)
peptide: XLPSIPVHPI
modifications: aminobutyric acid (Abu) at P1
notes: also called G288Abu

- binding result [6]: binds
B10: PSMA288-297 analog with Ala at P1 (peptide)
peptide: ALPSIPVHPI

- binding result [1]: binds
B11: PSMA288-297 analog with Ala at P1, Trp at P3 and Val at PΩ (peptide)
peptide: ALWSIPVHPV

- binding result [6]: binds
B12: PSMA288-297 analog with Ser at PΩ-1 (peptide)
peptide: GLPSIPVHSI

- binding result [5]: binds
B13: PSMA288-297 analog with Ala at P1 and Val at PΩ (peptide)
peptide: ALPSIPVHPV

- binding result [6]: binds
B14: PSMA288-297 analog with Ser at P1 (peptide)
peptide: SLPSIPVHPI

- binding result [2]: binds
B15: PSMA288-297 analog with Ile at P2 (peptide)
peptide: GIPSIPVHPI

- binding result [6]: binds
B16: PSMA288-297 analog with Ala at PΩ-1 (peptide)
peptide: GLPSIPVHAI

- binding result [1]: binds
B17: PSMA288-297 analog with Ala at P1, Val at P2 and Val at PΩ (peptide)
peptide: AVPSIPVHPV

- binding result [2]: binds
B18: PSMA288-297 analog with Gln at P2 (peptide)
peptide: GQPSIPVHPI

- binding result [2]: binds
B19: PSMA288-297 analog with Val at P2 (peptide)
peptide: GVPSIPVHPI

- binding result [6]: binds
B20: PSMA288-297 analog with Leu at PΩ-1 (peptide)
peptide: GLPSIPVHLI

- binding result [2]: binds
B21: PSMA288-297 analog with Leu at PΩ (peptide)
peptide: GLPSIPVHPL

- binding result [6]: binds
B22: PSMA288-297 analog with Thr at PΩ-1 (peptide)
peptide: GLPSIPVHTI

- Stability (T1/2) [10]: > 24 h
B27: SSX2 41-49 (K41Y, A42V) (peptide)
peptide: YVSEKIFYV

- EC50 [9]: 25 µM
- Relative affinity (1/RA) [9]: 0.6
- Stability (T1/2) [10]: > 24 h
B38: SSX2 41-49 (K41Y, A42M) (peptide)
peptide: YMSEKIFYV

- EC50 [9]: 11.8 µM
- Relative affinity (1/RA) [9]: 1.2
- Stability (T1/2) [10]: > 24 h
B40: SSX2 41-49 (K41Y, A42L) (peptide)
peptide: YLSEKIFYV

- binding result [1]: binds
B44: PSMA288-297 analog with Ala at P1, Nle at P2 and Trp at P3 (peptide)
peptide: A[Nle]WSIPVHPI

- binding result [5]: binds
B48: PSMA288-297 analog with Ala at P1 and Nva at PΩ (peptide)
peptide: ALPSIPVHP[Nva]

- binding result [5]: binds
B49: PSMA288-297 analog with Val at P2 and Nva at PΩ (peptide)
peptide: GVPSIPVHP[Nva]

- binding result [1]: binds
B50: PSMA288-297 analog with Ala at P1, Trp at P3 and Nva at PΩ (peptide)
peptide: ALWSIPVHP[Nva]

- binding result [1]: binds
B51: PSMA288-297 analog with Ala at P1, Val at P2 and Nva at PΩ (peptide)
peptide: AVPSIPVHP[Nva]

- binding result [5]: binds
B53: PSMA288-297 analog with Abu at P1 and Val at PΩ (peptide)
peptide: [Abu]LPSIPVHPV

- binding result [2]: binds
B56: PSMA288-297 analog with Nva at P2 (peptide)
peptide: G[Nva]PSIPVHPI

- binding result [1]: binds
B57: PSMA288-297 analog with Ala at P1, Nva at P2 and Val at PΩ (peptide)
peptide: A[Nva]PSIPVHPV

- binding result [2]: binds
B58: PSMA288-297 analog with Abu at P2 (peptide)
peptide: G[Abu]PSIPVHPI

From patent US20070060518A1 (MANNKIND, published 2007)
